The numbers were not newly measured in publication PMC6321638, which cites them from elsewhere.

This series deals with ALG-2 (Homo sapiens) (UniProt O75340). Put plainly: SPR. On the technique in general: SPR reads the build-up and loss of mass on a sensor chip optically.
Sequence of ALG-2 (Homo sapiens) (O75340 2-191): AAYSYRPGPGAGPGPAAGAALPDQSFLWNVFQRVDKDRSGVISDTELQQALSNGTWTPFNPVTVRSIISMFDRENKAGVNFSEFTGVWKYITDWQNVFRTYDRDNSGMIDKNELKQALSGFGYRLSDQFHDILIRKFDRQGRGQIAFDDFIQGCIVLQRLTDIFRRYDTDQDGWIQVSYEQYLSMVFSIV

The term Kd denotes the equilibrium constant for the complex coming apart. On to ALIX peptide, for which the Kd was 200 nM.
